Data taken from patent publication US6759384 (AVENTIS PHARMACEUTICALS, dated 2004).
Where two headings read alike, the source gives them in different places. Starred links: 1 amine or outer side, 2 acyl side, 3 side chain; linkers in the order of their positions; H or OH if unused. Non-standard residues stand in square brackets, D forms with d. No end group written: not given here. *: point of attachment. Phe(3-I,4-NH2) = 4-amino-3-iodo-L-phenylalanine, O=C([C@H](Cc1ccc(N[*:3])c(I)c1)N[*:1])[*:2]; (Chx-CH2)Y = N-(cyclohexylmethyl)-Tyr, O=C([C@H](Cc1ccc(O[*:3])cc1)N(CC1CCCCC1)[*:1])[*:2]; (iBu)Y = N-alpha-isobutyl-tyrosine, CC(C)CN([C@@H](Cc1ccc(O[*:3])cc1)C(=O)[*:2])[*:1]; 4‑isoquinolinoyl = 4-isoquinolinoyl N-terminal acyl group, O=C(c1cncc2ccccc12)*; dpAph = D-4-amidinophenylalanine, N=C(N)c1ccc(C[C@@H](N[*:1])C(=O)[*:2])cc1; Phe(4-CONH2) = NC(=O)c1ccc(C[C@H](N)C(=O)O)cc1; Phe(4-NH2) = Nc1ccc(C[C@H](N)C(=O)O)cc1; NMeL = CN[C@@H](CC(C)C)C(=O)O; Chg = N[C@H](C(=O)O)C1CCCCC1; Nicotinoyl = O=C(c1cccnc1)*; Tfa = O=C(C(F)(F)F)*

Key:
[1] = biological target: T1, human factor Xa (Enzyme Research Laboratories, Inc.) (human, UniProt P00742 41-179; P00742 235-488, limits assumed); experiment: chromogenic FXa inhibition
Procedure: TBS-P buffer (50 mM Tris-Cl, pH 7.8, 200 mM NaCl, 0.05% (w/v) PEG-8000, 0.02% (w/v) NaN_3) was used for this assay. The IC$50$ was determined by combining in appropriate wells of a Costar half-area microtiter plate 25 μl human factor Xa (Enzyme Research Laboratories, Inc.; South Bend Ind.) in TBS-P; 40 μl 10% (v/v) DMSO in TBS-P (uninhibited control) or various concentrations of a peptide to be tested diluted in 10% (v/v) DMSO in TBS-P; and substrate S-2765 (Nα-benzyloxycarbonyl-D-Arg-Gly-L-Arg-p-nitroanilide; Kabi Pharmacia, Inc.; Franklin Ohio) in TBS-P.
The assays were performed by pre-incubating the peptide inhibitor plus enzyme for 10 min, then the assay was initiated by adding substrate to obtain a final volume of 100 μl. The initial velocity of chromogenic substrate hydrolysis was measured by the change in absorbance at 405 nm using a Bio-tek Instruments kinetic plate reader (Ceres UV900HDi) at 25° C. during the linear portion of the time course (usually 1–5 min after addition of substrate). The concentration of inhibitor that caused a 50% decrease in the rate of substrate hydrolysis was predicted by linear regression after plotting the relative rates of hydrolysis (compared to the uninhibited control) versus the log of the peptide concentration. The enzyme concentration was 0.5 nM and substrate concentration was 140 μM.

[2] = biological target: T1, human factor Xa (Enzyme Research …); experiment: chromogenic FXa inhibition; remark: listed apart in the source
In short: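 Human FXa (0.5 nM) preincubated 10 min with inhibitor in TBS-P (pH 7.8, 200 mM NaCl, PEG-8000), then S-2765 added (140 μM). Initial hydrolysis rate read at 405 nm, 25° C.; IC50 by linear regression of relative rate vs log concentration.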

[3] = biological target: T1, human factor Xa (Enzyme Research …); experiment: cell-based or functional assay

T1 sequence (P00742 41-179 limits assumed, chain 1 of 2): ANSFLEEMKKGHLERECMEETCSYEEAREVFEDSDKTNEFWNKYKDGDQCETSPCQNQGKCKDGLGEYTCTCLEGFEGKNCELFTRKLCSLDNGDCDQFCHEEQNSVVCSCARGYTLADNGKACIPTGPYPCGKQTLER
T1 sequence (P00742 235-488 limits assumed, chain 2 of 2): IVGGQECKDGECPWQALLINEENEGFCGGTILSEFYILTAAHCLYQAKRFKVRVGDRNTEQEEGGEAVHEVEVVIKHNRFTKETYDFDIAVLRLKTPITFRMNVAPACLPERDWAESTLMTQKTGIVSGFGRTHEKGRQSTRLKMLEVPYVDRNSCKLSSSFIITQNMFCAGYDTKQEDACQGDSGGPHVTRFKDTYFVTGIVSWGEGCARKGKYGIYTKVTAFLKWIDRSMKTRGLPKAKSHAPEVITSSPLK

Row | Binder | Ki [1] [µM] | Ki [2] [µM] | EC50 (concentration giving 50% inhibition of coagulation), in vitro dilute prothrombin time assay, pooled human plasma [3] [µM]
1 | {4‑isoquinolinoyl}-[Phe(4-NH2)][Chg]RLP-NH2 (SMILES CC(C)C[C@H](NC(=O)[C@H](CCCNC(=N)N)NC(=O)[C@@H](NC(=O)[C@H](Cc1ccc(N)cc1)NC(=O)c1cncc2ccccc12)C1CCCCC1)C(=O)N1CCC[C@H]1C(N)=O) [(4-isoquinolinoyl)-Phe(pNH2)-Chg-Arg-Leu-Pro-NH2] | < 100 |  | 
2 | XIRLP (N-term Tfa; N-(iBu) on Y1; C-term NH2) [Tfa-(iBu)Y-I-R-L-P-NH2] | < 100 | < 100 | 
3 | Nicotinoyl-[Phe(4-NH2)][Chg]RLP-NH2 (SMILES CC(C)C[C@H](NC(=O)[C@H](CCCNC(=N)N)NC(=O)[C@@H](NC(=O)[C@H](Cc1ccc(N)cc1)NC(=O)c1cccnc1)C1CCCCC1)C(=O)N1CCC[C@H]1C(N)=O) [(3-pyridoyl)-Phe(pNH2)-Chg-Arg-Leu-Pro-NH2] | < 100 |  | 
4 | Ac-[Phe(3-I,4-NH2)][Chg]RLP-NH2 (SMILES CC(=O)N[C@@H](Cc1ccc(N)c(I)c1)C(=O)N[C@H](C(=O)N[C@@H](CCCNC(=N)N)C(=O)N[C@@H](CC(C)C)C(=O)N1CCC[C@H]1C(N)=O)C1CCCCC1) [Ac-Phe(3I,4NH2)-Chg-Arg-Leu-Pro-NH2] | < 100 |  | 
5 | XIRLP (N-term Ac; N-(2-Me-nBu) on Y1; C-term NH2) [Ac-(2-Me-nBu)Y-I-R-L-P-NH2] | < 100 | < 100 | 
6 | XIRLP (N-term Ac; N-(Et-CH═C(CH3)-CH2) on Y1; Y1=Y(SO3H); C-term NH2) [Ac-(Et-CH═C(CH3)-CH2)Y(SO3H)-I-R-L-P-NH2] |  | < 100 | 
7 | {5‑benzimidazolecarbonyl}-[Phe(4-NH2)][Chg]RLP-NH2 (also called (5-benzimidazoyl)-Phe(NH2)-Chg-Arg-Leu-Pro-NH2) [5-Bzim-CO-F(pNH2)-Chg-R-L-P-NH2] | < 100 | < 100 | 
8 | XIRLP (N-term Ac; N-(3,3-DiMe-nPentyl) on Y1; Y1=Y(SO3H); C-term NH2) [Ac-(3,3-DiMe-nPentyl)Y(SO3H)-I-R-L-P-NH2] |  | < 100 | 
9 | Ac-[Phe(4-NH2)][Chg]R[NMeL]P-NH2 (SMILES CC(=O)N[C@@H](Cc1ccc(N)cc1)C(=O)N[C@H](C(=O)N[C@@H](CCCNC(=N)N)C(=O)N(C)[C@@H](CC(C)C)C(=O)N1CCC[C@H]1C(N)=O)C1CCCCC1) [Ac-Phe(pNH2)-Chg-Arg-(Me)Leu-Pro-NH2] | < 100 |  | 
10 | XIRLP (N-term Ac; N-(2-Me-nPentyl) on Y1; Y1=Y(SO3H); C-term NH2) [Ac-(2-Me-nPentyl)Y(SO3H)-I-R-L-P-NH2] |  | < 100 | 
11 | XIRLP (N-term Ac; N-(2-Me-nPentyl) on Y1; C-term NH2, also called Ac-(CH3CH2CH2CH(CH3)CH2)-Y-I-R-L-P-NH2) [Ac-(2-Me-nPentyl)Y-I-R-L-P-NH2] | < 100 | < 100 | 
12 | Ac-[dpAph]IRLP-NH2 [Ac-D-pAph-Ile-Arg-Leu-Pro-NH2] | < 100 |  | 
13 | Ac-[Phe(4-CONH2)][Chg]RLP-NH2 (SMILES CC(=O)N[C@@H](Cc1ccc(C(N)=O)cc1)C(=O)N[C@H](C(=O)N[C@@H](CCCNC(=N)N)C(=O)N[C@@H](CC(C)C)C(=O)N1CCC[C@H]1C(N)=O)C1CCCCC1, also called Ac-Phe(pCONH2)-Chg-R-L-P-NH2; Ac-Phe(p-CONH2)-Chg-Arg-Leu-Pro-NH2) [Ac-F(pCONH2)-Chg-R-L-P-NH2] | < 100 | < 100 | 
14 | Ac-W[Chg]RLP-NH2 (SMILES CC(=O)N[C@@H](Cc1c[nH]c2ccccc12)C(=O)N[C@H](C(=O)N[C@@H](CCCNC(=N)N)C(=O)N[C@@H](CC(C)C)C(=O)N1CCC[C@H]1C(N)=O)C1CCCCC1, also called Ac-Trp-Chg-Arg-Leu-Pro-NH2) [Ac-W-Chg-R-L-P-NH2] | < 100 | < 100 | 
15 | [dY][Chg]RLP-NH2 (also called D-Tyr-Chg-Arg-Leu-Pro-NH2) [y-Chg-R-L-P-NH2] | < 100 | < 100 | 
16 | Tfa-[(iBu)Y][Chg]RLP-NH2 (also called Tfa-(iBu)Tyr-Chg-Arg-Leu-Pro-NH2) [Tfa-(iBu)Y-Chg-R-L-P-NH2] |  | < 100 | 0.3
17 | Ac-Y[Chg]RLP-NH2 (SMILES CC(=O)N[C@@H](Cc1ccc(O)cc1)C(=O)N[C@H](C(=O)N[C@@H](CCCNC(=N)N)C(=O)N[C@@H](CC(C)C)C(=O)N1CCC[C@H]1C(N)=O)C1CCCCC1, also called Ac-Tyr-Chg-Arg-Leu-Pro-NH2) [Ac-Y-Chg-R-L-P-NH2] | < 100 | < 100 | 0.225
18 | Ac-[(Chx-CH2)Y][Chg]RLP-NH2 [Ac-(Chx-CH2)Tyr-Chg-Arg-Leu-Pro-NH2] | < 100 |  | 
19 | Tfa-Y[Chg]RLP-NH2 [Tfa-Y-Chg-R-L-P-NH2] | < 100 | < 100 | 
